{
  "source": "patent US20050037448A1",
  "key": {"des-64,65-proinsulin [1]": {"biological_target": "des-64,65-proinsulin (UniProt P01308)", "experiment": "competitive RIA, PEP001-coated tubes, 125I-Tyr-C-peptide; serum E1 overloaded with 3.33 pmol/ml des-64,65-proinsulin; no AC1D4"}, "des-31,32-proinsulin [2]": {"biological_target": "des-31,32-proinsulin (UniProt P01308)", "experiment": "competitive RIA, PEP001-coated tubes, 125I-Tyr-C-peptide; serum E2 overloaded with 3.33 pmol/ml des-31,32-proinsulin; no AC1D4"}, "des-64,65-proinsulin [3]": {"biological_target": "des-64,65-proinsulin (UniProt P01308)", "experiment": "sandwich immunoenzymatic C-peptide assay: PEP001 beads, goat polyclonal anti-C-peptide-alkaline phosphatase; competitor BC9B6 20 µg/ml"}, "des-31,32-proinsulin [4]": {"biological_target": "des-31,32-proinsulin (UniProt P01308)", "experiment": "sandwich immunoenzymatic C-peptide assay: PEP001 beads, goat polyclonal anti-C-peptide-alkaline phosphatase; competitor BC9B6 20 µg/ml"}, "human proinsulin (human) [5]": {"biological_target": "human proinsulin (human) (UniProt P01308)", "experiment": "sandwich immunoenzymatic C-peptide assay: PEP001 beads, goat polyclonal anti-C-peptide-alkaline phosphatase; competitor BC9B6 20 µg/ml"}, "des-64,65-proinsulin [6]": {"biological_target": "des-64,65-proinsulin (UniProt P01308)", "experiment": "sandwich immunoenzymatic C-peptide assay: PEP001 beads, goat polyclonal anti-C-peptide-alkaline phosphatase; no AC1D4"}, "des-31,32-proinsulin [7]": {"biological_target": "des-31,32-proinsulin (UniProt P01308)", "experiment": "sandwich immunoenzymatic C-peptide assay: PEP001 beads, goat polyclonal anti-C-peptide-alkaline phosphatase; no AC1D4"}, "human proinsulin (human) [8]": {"biological_target": "human proinsulin (human) (UniProt P01308)", "experiment": "sandwich immunoenzymatic C-peptide assay: PEP001 beads, goat polyclonal anti-C-peptide-alkaline phosphatase; no AC1D4"}, "human proinsulin (human) [9]": {"biological_target": "human proinsulin (human) (UniProt P01308)", "experiment": "competitive RIA, PEP001-coated tubes, 125I-Tyr-C-peptide; serum E1 overloaded with 0.16 pmol/ml proinsulin; no AC1D4"}, "des-64,65-proinsulin [10]": {"biological_target": "des-64,65-proinsulin (UniProt P01308)", "experiment": "competitive RIA, PEP001-coated tubes, 125I-Tyr-C-peptide; serum E1 overloaded with 0.67 pmol/ml des-64,65-proinsulin; no AC1D4"}, "human proinsulin (human) [11]": {"biological_target": "human proinsulin (human) (UniProt P01308)", "experiment": "competitive RIA, PEP001-coated tubes, 125I-Tyr-C-peptide; serum E1 overloaded with 0.67 pmol/ml proinsulin; competitor AC1D4 20 µg/ml"}, "des-64,65-proinsulin [12]": {"biological_target": "des-64,65-proinsulin (UniProt P01308)", "experiment": "competitive RIA, PEP001-coated tubes, 125I-Tyr-C-peptide; serum E2 overloaded with 0.67 pmol/ml des-64,65-proinsulin; competitor AC1D4 20 µg/ml"}, "des-31,32-proinsulin [13]": {"biological_target": "des-31,32-proinsulin (UniProt P01308)", "experiment": "competitive RIA, PEP001-coated tubes, 125I-Tyr-C-peptide; serum E1 overloaded with 0.67 pmol/ml des-31,32-proinsulin; competitor AC1D4 20 µg/ml"}, "des-64,65-proinsulin [14]": {"biological_target": "des-64,65-proinsulin (UniProt P01308)", "experiment": "competitive RIA, PEP001-coated tubes, 125I-Tyr-C-peptide; serum E2 overloaded with 0.67 pmol/ml des-64,65-proinsulin; no AC1D4"}, "des-64,65-proinsulin [15]": {"biological_target": "des-64,65-proinsulin (UniProt P01308)", "experiment": "sandwich immunoenzymatic C-peptide assay: PEP001 beads, goat polyclonal anti-C-peptide-alkaline phosphatase; no BC9B6"}, "des-31,32-proinsulin [16]": {"biological_target": "des-31,32-proinsulin (UniProt P01308)", "experiment": "sandwich immunoenzymatic C-peptide assay: PEP001 beads, goat polyclonal anti-C-peptide-alkaline phosphatase; no BC9B6"}, "human proinsulin (human) [17]": {"biological_target": "human proinsulin (human) (UniProt P01308)", "experiment": "sandwich immunoenzymatic C-peptide assay: PEP001 beads, goat polyclonal anti-C-peptide-alkaline phosphatase; no BC9B6"}, "des-31,32-proinsulin [18]": {"biological_target": "des-31,32-proinsulin (UniProt P01308)", "experiment": "competitive RIA, PEP001-coated tubes, 125I-Tyr-C-peptide; serum E2 overloaded with 0.16 pmol/ml des-31,32-proinsulin; no AC1D4"}, "des-64,65-proinsulin [19]": {"biological_target": "des-64,65-proinsulin (UniProt P01308)", "experiment": "sandwich immunoenzymatic C-peptide assay: PEP001 beads, goat polyclonal conjugate; competitors AC1D4 + BC9B6 in equal quantities, 10 µg/ml"}, "des-31,32-proinsulin [20]": {"biological_target": "des-31,32-proinsulin (UniProt P01308)", "experiment": "sandwich immunoenzymatic C-peptide assay: PEP001 beads, goat polyclonal conjugate; competitors AC1D4 + BC9B6 in equal quantities, 10 µg/ml"}, "human proinsulin (human) [21]": {"biological_target": "human proinsulin (human) (UniProt P01308)", "experiment": "sandwich immunoenzymatic C-peptide assay: PEP001 beads, goat polyclonal conjugate; competitors AC1D4 + BC9B6 in equal quantities, 10 µg/ml"}, "des-64,65-proinsulin [22]": {"biological_target": "des-64,65-proinsulin (UniProt P01308)", "experiment": "sandwich immunoenzymatic C-peptide assay: PEP001 beads, goat polyclonal conjugate; competitors AC1D4 + BC9B6 in equal quantities, 20 µg/ml"}, "des-31,32-proinsulin [23]": {"biological_target": "des-31,32-proinsulin (UniProt P01308)", "experiment": "sandwich immunoenzymatic C-peptide assay: PEP001 beads, goat polyclonal conjugate; competitors AC1D4 + BC9B6 in equal quantities, 20 µg/ml"}, "human proinsulin (human) [24]": {"biological_target": "human proinsulin (human) (UniProt P01308)", "experiment": "sandwich immunoenzymatic C-peptide assay: PEP001 beads, goat polyclonal conjugate; competitors AC1D4 + BC9B6 in equal quantities, 20 µg/ml"}, "human proinsulin (human) [25]": {"biological_target": "human proinsulin (human) (UniProt P01308)", "experiment": "competitive RIA, PEP001-coated tubes, 125I-Tyr-C-peptide; serum E2 overloaded with 0.67 pmol/ml proinsulin; competitor AC1D4 20 µg/ml"}, "des-64,65-proinsulin [26]": {"biological_target": "des-64,65-proinsulin (UniProt P01308)", "experiment": "competitive RIA, PEP001-coated tubes, 125I-Tyr-C-peptide; serum E2 overloaded with 0.16 pmol/ml des-64,65-proinsulin; no AC1D4"}, "des-64,65-proinsulin [27]": {"biological_target": "des-64,65-proinsulin (UniProt P01308)", "experiment": "sandwich immunoenzymatic C-peptide assay: PEP001 beads, goat polyclonal conjugate; competitors AC1D4 + BC9B6 in equal quantities, 40 µg/ml"}, "des-31,32-proinsulin [28]": {"biological_target": "des-31,32-proinsulin (UniProt P01308)", "experiment": "sandwich immunoenzymatic C-peptide assay: PEP001 beads, goat polyclonal conjugate; competitors AC1D4 + BC9B6 in equal quantities, 40 µg/ml"}, "human proinsulin (human) [29]": {"biological_target": "human proinsulin (human) (UniProt P01308)", "experiment": "sandwich immunoenzymatic C-peptide assay: PEP001 beads, goat polyclonal conjugate; competitors AC1D4 + BC9B6 in equal quantities, 40 µg/ml"}},
  "data": [
    {"substance": "PEP001 anti-C-peptide monoclonal antibody", "values": [
      {"measurement": "Increase after overload (%)", "setting": "des-64,65-proinsulin [1]", "result": 267, "unit": "%"},
      {"measurement": "Increase after overload (%)", "setting": "des-31,32-proinsulin [2]", "result": 59, "unit": "%"},
      {"measurement": "percentage of cross reaction", "setting": "des-64,65-proinsulin [3]", "result": 8, "unit": "%"},
      {"measurement": "percentage of cross reaction", "setting": "des-31,32-proinsulin [4]", "result": 115, "unit": "%"},
      {"measurement": "percentage of cross reaction", "setting": "human proinsulin (human) [5]", "result": 8, "unit": "%"},
      {"measurement": "percentage of cross reaction", "setting": "des-64,65-proinsulin [6]", "result": 94, "unit": "%"},
      {"measurement": "percentage of cross reaction", "setting": "des-31,32-proinsulin [7]", "result": 108, "unit": "%"},
      {"measurement": "percentage of cross reaction", "setting": "human proinsulin (human) [8]", "result": 92, "unit": "%"},
      {"measurement": "Increase after overload (%)", "setting": "human proinsulin (human) [9]", "result": 15, "unit": "%"},
      {"measurement": "Increase after overload (%)", "setting": "des-64,65-proinsulin [10]", "result": 49, "unit": "%"},
      {"measurement": "Increase after overload (%)", "setting": "human proinsulin (human) [11]", "result": 6, "unit": "%"},
      {"measurement": "Increase after overload (%)", "setting": "des-64,65-proinsulin [12]", "result": 18, "unit": "%"},
      {"measurement": "Increase after overload (%)", "setting": "des-31,32-proinsulin [13]", "result": 12, "unit": "%"},
      {"measurement": "Increase after overload (%)", "setting": "des-64,65-proinsulin [14]", "result": 9, "unit": "%"},
      {"measurement": "percentage of cross reaction", "setting": "des-64,65-proinsulin [15]", "result": 94, "unit": "%"},
      {"measurement": "percentage of cross reaction", "setting": "des-31,32-proinsulin [16]", "result": 108, "unit": "%"},
      {"measurement": "percentage of cross reaction", "setting": "human proinsulin (human) [17]", "result": 92, "unit": "%"},
      {"measurement": "Increase after overload (%)", "setting": "des-31,32-proinsulin [18]", "result": 10, "unit": "%"},
      {"measurement": "percentage of cross reaction", "setting": "des-64,65-proinsulin [19]", "result": 18, "unit": "%"},
      {"measurement": "percentage of cross reaction", "setting": "des-31,32-proinsulin [20]", "result": 30, "unit": "%"},
      {"measurement": "percentage of cross reaction", "setting": "human proinsulin (human) [21]", "result": 4, "unit": "%"},
      {"measurement": "percentage of cross reaction", "setting": "des-64,65-proinsulin [22]", "result": 10, "unit": "%"},
      {"measurement": "percentage of cross reaction", "setting": "des-31,32-proinsulin [23]", "result": 19, "unit": "%"},
      {"measurement": "percentage of cross reaction", "setting": "human proinsulin (human) [24]", "result": 2, "unit": "%"},
      {"measurement": "Increase after overload (%)", "setting": "human proinsulin (human) [25]", "result": 1, "unit": "%"},
      {"measurement": "Increase after overload (%)", "setting": "des-64,65-proinsulin [26]", "result": 0, "unit": "%"},
      {"measurement": "percentage of cross reaction", "setting": "des-64,65-proinsulin [27]", "result": 7, "unit": "%"},
      {"measurement": "percentage of cross reaction", "setting": "des-31,32-proinsulin [28]", "result": 13, "unit": "%"},
      {"measurement": "percentage of cross reaction", "setting": "human proinsulin (human) [29]", "result": 18, "unit": "%"}
    ]}
  ]
}
